Laboratory results reported in publication PMC2824085.

Tests used:
[1] = molecular target: monomeric carbohydrate-recognition domain (CRD) from DC-SIGN (UniProt Q9NNX6); assay: SPR; BiaCore 3000, CM5 chip; CRD of DC-SIGN immobilised, glycopeptide from SBA in the fluid phase; steady state; 10 mM Hepes, 150 mM NaCl, 5 mM CaCl2, 0.005% P20, pH 7.4, 25 °C
[2] = molecular target: monomeric carbohydrate-recognition domain (CRD) from DC-SIGN (UniProt Q9NNX6); assay: radioligand binding; competition: CRD of DC-SIGN immobilised on polystyrene wells, 125I-labeled mannose-BSA as reporter ligand, competing ligand titrated; KI = concentration for 50% inhibition
[3] = molecular target: monomeric carbohydrate-recognition domain (CRD) of rat macrophage galactose lectin (MGL) (rat) (UniProt P49301); assay: radioligand binding; competition: CRD or ECD of MGL coated on polystyrene wells, 125I-labeled Gal-BSA as reporter ligand, competing ligand titrated; KI = concentration for 50% inhibition
[4] = molecular target: trimeric extracellular domain (ECD) of rat macrophage galactose lectin (MGL) (rat) (UniProt P49301); assay: as above
[5] = molecular target: Man9GlcNAc2 glycopeptide isolated from soybean agglutinin (soybean); assay: SPR; BiaCore 3000, CM5 chip; SBA or its glycopeptide amine-coupled, monomeric CRD of DC-SIGN flowed over; steady state, simple saturation model with linear background; 10 mM Hepes, 150 mM NaCl, 5 mM CaCl2, 0.005% P20, pH 7.4, 25 °C

Sequence of monomeric carbohydrate-recognition domain (CRD) of rat macrophage galactose lectin (MGL) (rat) (P49301 165-306): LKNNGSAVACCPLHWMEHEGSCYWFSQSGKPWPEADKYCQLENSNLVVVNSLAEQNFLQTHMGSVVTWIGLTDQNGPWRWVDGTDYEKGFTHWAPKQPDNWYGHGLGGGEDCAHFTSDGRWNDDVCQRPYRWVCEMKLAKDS
Sequence of trimeric extracellular domain (ECD) of rat macrophage galactose lectin (MGL) (rat) (P49301 59-306, tags left off): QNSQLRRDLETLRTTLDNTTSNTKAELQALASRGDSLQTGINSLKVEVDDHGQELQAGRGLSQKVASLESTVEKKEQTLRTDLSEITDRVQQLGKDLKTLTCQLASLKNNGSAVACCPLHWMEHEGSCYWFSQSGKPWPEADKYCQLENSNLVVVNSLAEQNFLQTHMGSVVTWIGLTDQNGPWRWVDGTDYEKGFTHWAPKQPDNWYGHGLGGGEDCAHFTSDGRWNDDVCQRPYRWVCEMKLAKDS
Sequence of monomeric carbohydrate-recognition domain (CRD) from DC-SIGN (Q9NNX6 250-404): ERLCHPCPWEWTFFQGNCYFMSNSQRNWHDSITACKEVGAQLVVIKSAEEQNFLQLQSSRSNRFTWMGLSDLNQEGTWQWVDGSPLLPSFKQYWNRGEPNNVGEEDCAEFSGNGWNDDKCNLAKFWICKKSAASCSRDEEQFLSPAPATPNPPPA

Man9GlcNAc2 glycopeptide isolated from soybean agglutinin
Kd [1]: 76 µM | Ki [2]: 68 µM

asialo-orosomucoid OR-5 (five glycosylation sites, expressed in Chinese hamster ovary cells) (from UniProt P02763 19-201) (natural protein)
Ki [3]: 1.4 µM | Ki [4]: 0.65 µM

asialo-orosomucoid derived from human blood (from UniProt P02763 19-201) (natural protein)
Ki [3]: 0.12 µM | Ki [4]: 0.18 µM

desialylated tri-antennary glycopeptide isolated from fetuin
Ki [3]: 260 µM | Ki [4]: 160 µM

monomeric carbohydrate-recognition domain (CRD) from DC-SIGN (from UniProt Q9NNX6 250-404) (domain or fragment)
fold lower affinity than for intact SBA [5]: 15 fold
